In patent US20240327530A1 (ICHNOS SCIENCES, published 2024):
Substitutions are numbered along the chain they refer to. Numbers in names are those of the source.

T1: Recombinant mouse IL-1RAP Fc fusion protein (Sino Biologicals, catalog no. 52657-M02H) (mouse, UniProt Q61730 21-350)
T1 construct: Bought; not shown: Fc part of the bought fusion protein
T1 sequence: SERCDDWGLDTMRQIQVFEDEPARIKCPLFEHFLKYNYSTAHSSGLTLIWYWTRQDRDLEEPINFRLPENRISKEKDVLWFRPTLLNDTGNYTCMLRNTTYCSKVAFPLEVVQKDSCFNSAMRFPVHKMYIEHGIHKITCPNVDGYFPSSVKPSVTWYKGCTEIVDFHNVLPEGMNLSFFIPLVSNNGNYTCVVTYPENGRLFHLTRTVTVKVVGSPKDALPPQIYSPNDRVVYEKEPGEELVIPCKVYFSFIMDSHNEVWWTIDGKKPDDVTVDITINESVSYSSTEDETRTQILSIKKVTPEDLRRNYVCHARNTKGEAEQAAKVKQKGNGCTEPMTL

T2: Recombinant cynomolgus monkey IL-1RAP-ECD(S21-E359)-avi-his protein (cynomolgus monkey, UniProt P59822 21-359 (rhesus entry))
T2 construct: also called cyno IL-1RAP-ECD-Avi-His; recombinant cynomolgus monkey IL-1RAP-avi-his protein
T2 sequence: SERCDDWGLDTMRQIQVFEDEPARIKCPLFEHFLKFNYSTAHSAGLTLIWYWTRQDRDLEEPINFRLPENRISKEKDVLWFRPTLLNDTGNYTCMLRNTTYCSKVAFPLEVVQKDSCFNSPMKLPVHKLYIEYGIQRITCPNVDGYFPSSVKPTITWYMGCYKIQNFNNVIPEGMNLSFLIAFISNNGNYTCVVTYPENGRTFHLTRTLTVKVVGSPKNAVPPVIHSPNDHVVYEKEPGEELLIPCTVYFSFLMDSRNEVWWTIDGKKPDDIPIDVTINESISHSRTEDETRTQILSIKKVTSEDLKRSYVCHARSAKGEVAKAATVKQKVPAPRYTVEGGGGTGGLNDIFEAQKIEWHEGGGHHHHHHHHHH

T3: Recombinant human IL-1RAP-ECD(S21-E359)-avi-his protein (human, UniProt Q9NPH3 21-359)
T3 construct: Biotinylated where loaded on streptavidin; also called human IL-1RAP-ECD-Avi-His; recombinant human IL-1RAP-avi-his protein
T3 sequence: T2 sequence with F183L, P273T, T326K

B1: Anti-IL-1RAP-C3-MP01-A2 Fab (Fab, V domains shown)
VH: EVQLLESGGGLVQPGGSLRLSCAASGFTFAEYAMNWVRQAPGKGLEWVSAISYDGEGTLYADSVKGRFTISRDNSKNTLYLQMNSLRAEDTAVYYCARFRYYTAFDYWGQGTLVTVSS
VL: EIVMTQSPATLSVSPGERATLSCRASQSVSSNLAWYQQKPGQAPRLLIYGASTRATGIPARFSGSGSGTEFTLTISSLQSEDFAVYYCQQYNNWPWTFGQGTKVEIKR
B2: Anti-IL-1RAP-C3-MP02-G2 Fab (Fab, V domains shown)
VH: B1 VH with F29Y, A30D, E31V, Y32A, A33P, N35G
VL: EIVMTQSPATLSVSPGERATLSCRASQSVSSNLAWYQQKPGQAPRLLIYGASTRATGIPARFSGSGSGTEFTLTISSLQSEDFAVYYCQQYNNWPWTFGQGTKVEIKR
B3: Anti-IL-1RAP-C3-MP01-F5 Fab (Fab, V domains shown)
VH: B1 VH with T28P, F29L, A30S, E31N, A33G, N35S
VL: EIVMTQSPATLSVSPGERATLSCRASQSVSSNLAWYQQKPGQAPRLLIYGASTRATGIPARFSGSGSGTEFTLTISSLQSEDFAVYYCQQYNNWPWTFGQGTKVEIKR
B4: Anti-IL-1RAP-C3-MP01-G10 Fab (Fab, V domains shown)
VH: B1 VH with A30S, E31H, A33G, N35S
VL: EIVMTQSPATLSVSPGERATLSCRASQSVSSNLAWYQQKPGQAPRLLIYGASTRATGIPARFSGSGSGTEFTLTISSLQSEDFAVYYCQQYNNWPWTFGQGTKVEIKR
B5: Anti-IL-1RAP-C3-MP01-B5 Fab (Fab, V domains shown)
VH: B1 VH with T28I, A30S, E31T, A33G, N35G
VL: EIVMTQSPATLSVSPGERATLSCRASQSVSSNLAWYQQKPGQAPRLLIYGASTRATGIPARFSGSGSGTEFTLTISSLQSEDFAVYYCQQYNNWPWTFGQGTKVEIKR
B6: Anti-IL-1RAP-C3-MP01-A3 Fab (Fab, V domains shown)
VH: B1 VH with T28I, A30S, E31H, A33G, N35S
VL: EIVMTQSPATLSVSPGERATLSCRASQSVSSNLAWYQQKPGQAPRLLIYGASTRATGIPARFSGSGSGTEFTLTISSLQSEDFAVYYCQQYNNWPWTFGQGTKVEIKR
notes: also called Fab clone anti-IL-1RAP-C3-A3
B7: Anti-IL-1RAP-C3-MP02-F6 Fab (Fab, V domains shown)
VH: B1 VH with A30P, E31D, A33P, M34L, N35G
VL: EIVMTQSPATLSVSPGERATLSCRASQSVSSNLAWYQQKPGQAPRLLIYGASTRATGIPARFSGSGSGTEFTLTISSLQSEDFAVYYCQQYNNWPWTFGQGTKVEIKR
B8: Anti-IL-1RAP-C3-MP01-B7 Fab (Fab, V domains shown)
VH: B1 VH with F29L, A30S, E31G, Y32F, A33S, N35S
VL: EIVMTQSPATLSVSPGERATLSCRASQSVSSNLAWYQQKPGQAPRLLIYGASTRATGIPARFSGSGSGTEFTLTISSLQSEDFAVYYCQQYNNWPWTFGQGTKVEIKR
B9: Anti-IL-1RAP-C3-MP02-B8 Fab (Fab, V domains shown)
VH: B1 VH with A30E, E31H, Y32S, A33S, M34A, N35G
VL: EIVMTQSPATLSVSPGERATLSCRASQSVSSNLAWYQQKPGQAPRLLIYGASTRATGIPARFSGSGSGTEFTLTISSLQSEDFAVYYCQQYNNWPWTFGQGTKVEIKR
B10: Anti-IL-1RAP-C3-MP01-D2 Fab (Fab, V domains shown)
VH: B1 VH with A30S, E31Q, Y32F, A33G, N35T
VL: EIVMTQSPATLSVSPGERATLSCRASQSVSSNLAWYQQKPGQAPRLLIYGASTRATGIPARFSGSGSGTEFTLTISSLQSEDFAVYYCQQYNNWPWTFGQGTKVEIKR
B11: Anti-IL-1RAP-C8-recC IgG1 LALA (antibody, V domains shown)
VH: QVQLVQSGAEVKKPGSSVKVSCKASGSPAEPYAIQWVRQAPGQGLEWMGYIIPSLGGYDYAQKFQGRVTITADESTSTAYMELSSLRSEDTAVYYCARGQTLYDSGRQFDIWGQGTLVTVSS
VL: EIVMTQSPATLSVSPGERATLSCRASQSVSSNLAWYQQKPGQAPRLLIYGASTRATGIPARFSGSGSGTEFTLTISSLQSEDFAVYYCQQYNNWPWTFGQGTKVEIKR
notes: Human IgG1 with L234A/L235A (EU); whether it is the full heavy chain or only VH is not clear; also called ISB 880-C8-recC
B12: Anti-IL-1RAP-C8-RecC-AA-IgG1LALA (antibody, V domains shown)
VH: B11 VH with D104A, S105A
VL: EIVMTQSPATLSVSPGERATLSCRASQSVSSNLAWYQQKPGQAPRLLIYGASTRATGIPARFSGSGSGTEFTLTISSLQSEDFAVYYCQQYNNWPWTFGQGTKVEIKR
notes: Human IgG1 LALA; also called ISB 880-C8-recC-AA
B13: Anti-IL-1RAP-C8-RecC-AS-IgG1LALA (antibody, V domains shown)
VH: B11 VH with D104A
VL: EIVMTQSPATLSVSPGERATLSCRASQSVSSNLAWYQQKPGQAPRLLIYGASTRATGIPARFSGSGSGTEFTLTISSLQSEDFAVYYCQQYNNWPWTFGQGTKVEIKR
notes: Human IgG1 LALA; D100/S100a (Kabat) of RecC replaced by AS; also called ISB 880-C8-recC-AS
B14: Anti-IL-1RAP-C8-RecC-DA-IgG1LALA (antibody, V domains shown)
VH: B11 VH with S105A
VL: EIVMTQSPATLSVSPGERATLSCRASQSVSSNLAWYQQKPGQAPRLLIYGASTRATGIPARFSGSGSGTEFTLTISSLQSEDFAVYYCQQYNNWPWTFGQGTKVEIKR
notes: Human IgG1 LALA; D100/S100a (Kabat) of RecC replaced by DA; also called ISB 880-C8-recC-DA
B15: Anti-IL-1RAP-C8-RecC-ET-IgG1LALA (antibody, V domains shown)
VH: B11 VH with D104E, S105T
VL: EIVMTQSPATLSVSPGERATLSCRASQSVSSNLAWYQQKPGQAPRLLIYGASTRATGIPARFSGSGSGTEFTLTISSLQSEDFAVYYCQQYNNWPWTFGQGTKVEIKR
notes: Human IgG1 LALA; also called ISB 880-C8-recC-ET

biological target: T1, Recombinant mouse IL-1RAP Fc fusion …; experiment: SPR, mouse IL-1RAP-Fc captured, Fab as analyte (0.04 to 5 nM)
Method: Affinities of the Fab fragments to mouse IL-1RAP were measured as described in Example 1, with the following modifications. Measurements were performed on Series S CM5 sensor chips (BIACORE™ T200, BIACORE™, GE […]®, catalog no. BR100530) coupled with anti-human IgG Fc (BIACORE™, GE […]®, catalog no. BR100839) using a commercial amine coupling kit (BIACORE™, GE […]®, catalog no. BR100050). SPR measurements were performed with commercially available recombinant mouse IL-1RAP Fc fusion protein (Sino Biologicals, catalog no. 52657-M02H). The affinities to mouse IL-1RAP were assessed by immobilizing mouse IL-1RAP-Fc and using Fab fragments as analyte. Around 60 RUs of mouse IL-1RAP Fc fusion protein were captured on fc2 of a Series S CM5 sensor chip coupled with anti-human IgG Fc. Fab fragments were injected in single cycle kinetic at different concentrations ranging from 0.04 to 5 nM, in HBS-EP+ buffer (BIACORE™, GE […]®, catalog no. BR100669) at a flow rate of 30 μl/min for 3 min on fc1 and fc2 (fc1 being used as reference). Dissociation was monitored for 10 min.

| Kd [nM] | Binder |
| --- | --- |
| 0.68 | B1 |
| 0.32 | B2 |
| 0.28 | B3 |
| 0.21 | B4 |
| 0.21 | B5 |
| 0.14 | B6 |
| 0.26 | B7 |
| 0.17 | B8 |
| 0.49 | B9 |
| 0.22 | B10 |

biological target: T2, Recombinant cynomolgus monkey …; experiment: SPR, IgG1 LALA captured by anti-human Fc, cyno IL-1RAP-avi-his as analyte, 1:1 fit
Method: (§1) Surface plasmon resonance (SPR) was used to measure the binding affinities of the human IgG1 LALA molecules for human and cynomolgus monkey IL-1RAP. Affinities were measured on a BIACORE™ T200 instrument (BIACORE™, GE […]®) at 25° C. and analyzed with the BIACORE™ T200 Evaluation Software (v3.1). Measurements were performed on Series S CM5 sensor chips (BIACORE™ T200, BIACORE™, GE […]®, catalog no. BR100530) coupled with anti-human IgG Fc (BIACORE™, GE […]®, catalog no. BR100839) using a commercial amine coupling kit (BIACORE™, GE […]®, catalog no. BR100050). SPR measurements were performed with recombinant human IL-1RAP-avi-his protein produced in house (SEQ ID NO. 1) or recombinant cynomolgus monkey IL-1RAP-avi-his protein produced in house (SEQ ID NO. 2). The affinities to human and cynomolgus monkey IL-1RAP were assessed by immobilizing anti-IL-1RAP IgG1 LALA molecules and using IL-1RAP proteins as analyte. Around 150 RU of human IgG1 LALA were captured on fc2 of a Series S CM5 sensor chip coupled with anti-human IgG Fc. Recombinant human IL-1RAP-avi-his protein or recombinant cynomolgus monkey IL-1RAP-avi-his protein was injected in multi cycle kinetic at different concentrations ranging from 0.14 to 100 nM, in HBS-EP+ buffer (BIACORE™, GE […]®, catalog no. BR100669) at a flow rate of 30 μl/min for 3 min on fc1 and fc2 (fc1 being used as reference). Dissociation was monitored for 12 min. After each cycle, the surface was regenerated with 60 μl of regeneration solution provided with anti-human IgG Fc capture kit (BIACORE™, GE […]®, catalog no. BR100839). Experimental data were processed using the 1:1 Langmuir kinetic fitting model. Measurements included zero-concentration samples for referencing. Chi², U- and residual values were used to evaluate the quality of a fit between the experimental data and individual binding models.

| Kd [nM] | koff [s⁻¹] | kon [M⁻¹ s⁻¹] | Binder |
| --- | --- | --- | --- |
| 0.276 | 0.000236 | 854000 | B11 |
| 0.24 | 0.000187 | 777000 | B12 |
| 0.254 | 0.00016 | 628000 | B13 |
| 0.145 | 0.00019 | 1.31e+06 | B14 |
| 0.336 | 0.000308 | 916000 | B15 |

biological target: T3, Recombinant human …; experiment: SPR, IgG1 LALA captured by anti-human Fc, human IL-1RAP-avi-his as analyte, 1:1 fit
Method: as §1

| Kd [nM] | koff [s⁻¹] | kon [M⁻¹ s⁻¹] | Binder |
| --- | --- | --- | --- |
| 0.237 | 0.000199 | 840000 | B11 |
| 0.267 | 0.000169 | 634000 | B12 |
| 0.287 | 0.000161 | 561000 | B13 |
| 0.14 | 0.000162 | 1.16e+06 | B14 |
| 0.278 | 0.000253 | 916000 | B15 |
